# T1: Human PTK7 (human, UniProt Q13308 31-1070)
# T1 sequence: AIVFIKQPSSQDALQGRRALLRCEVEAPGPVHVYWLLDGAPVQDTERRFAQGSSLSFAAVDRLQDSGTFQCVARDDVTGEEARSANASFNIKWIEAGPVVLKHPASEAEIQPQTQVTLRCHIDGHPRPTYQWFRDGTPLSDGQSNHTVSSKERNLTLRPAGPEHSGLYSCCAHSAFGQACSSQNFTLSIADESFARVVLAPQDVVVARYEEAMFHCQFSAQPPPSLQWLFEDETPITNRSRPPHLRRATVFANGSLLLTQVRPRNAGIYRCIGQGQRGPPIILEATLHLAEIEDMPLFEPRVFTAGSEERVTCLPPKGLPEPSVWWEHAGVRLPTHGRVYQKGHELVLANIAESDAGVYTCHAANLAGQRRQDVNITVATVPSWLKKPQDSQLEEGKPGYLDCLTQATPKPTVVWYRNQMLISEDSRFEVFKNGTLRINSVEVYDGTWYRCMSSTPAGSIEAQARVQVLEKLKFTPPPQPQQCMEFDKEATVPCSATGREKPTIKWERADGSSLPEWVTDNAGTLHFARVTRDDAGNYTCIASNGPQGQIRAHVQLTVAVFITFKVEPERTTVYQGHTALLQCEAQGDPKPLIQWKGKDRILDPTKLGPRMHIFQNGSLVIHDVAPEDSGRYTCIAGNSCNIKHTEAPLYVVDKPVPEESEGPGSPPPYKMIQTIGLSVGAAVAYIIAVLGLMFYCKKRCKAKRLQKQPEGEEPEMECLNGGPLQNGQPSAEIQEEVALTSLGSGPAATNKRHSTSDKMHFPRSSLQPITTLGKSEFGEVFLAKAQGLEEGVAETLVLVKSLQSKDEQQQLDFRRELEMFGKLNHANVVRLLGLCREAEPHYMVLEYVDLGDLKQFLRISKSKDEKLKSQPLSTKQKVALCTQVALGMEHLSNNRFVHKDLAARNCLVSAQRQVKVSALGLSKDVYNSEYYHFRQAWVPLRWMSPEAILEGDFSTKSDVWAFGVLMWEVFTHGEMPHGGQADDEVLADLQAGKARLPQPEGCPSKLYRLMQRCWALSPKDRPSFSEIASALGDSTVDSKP
# Target: T1, Human PTK7
# Assay: cell-based or functional assay
row,Binder,"Internalization, FOW @ 25 nM (fold over the wildtype, parental antibody)"
1,"MYT11271 (antibody, V domains shown) VH: EVQLVESGGGLVQPGGSLRLSCTASGIDLSRYSMGWVRQAPGKGLEWVGIISYGGSHYYASWAKGRFTISRDTSKNTVYLQMNSLRAEDTAVYFCARVGYPGYSGYGYAFDAFDPWGQGTLVTVSS VL: EIVMTQSPSTLSASVGDRVIITCQSSKSVYNDNWLSWYQQKPGKAPKLLIYGASTLASGVPSRFSGSGSGAEFTLTISSLQPDDFATYYCAGGYSSSSDNGFGQGTKLTVL",1.57 fold over parental antibody
2,"MYT11280 (antibody, V domains shown) VH: EVQLVESGGGLVQPGGSLRLSCTASGIDLSRYSMGWVRQAPGKGLEWVGIISYGGSTYYASWAKGRFTISRDTSKNTVYLQMNSLRAEDTAVYFCHRVGYPGYSGYGYAFDAFDPWGQGTLVTVSS VL: EIVMTQSPSTLSASVGDRVIITCQSSKSVYNDNWLSWYQQKPGKAPKLLIYGASTLASGVPSRFSGSGSGAEFTLTISSLQPDDFATYYCAGGYSSSSDNGFGQGTKLTVL",1.16 fold over parental antibody
3,"MYT11281 (antibody, V domains shown) VH: EVQLVESGGGLVQPGGSLRLSCTASGIDLSRYSMGWVRQAPGKGLEWVGIISYGGSTYYASWAKGRFTISRDTSKNTVYLQMNSLRAEDTAVYFCAHVGYPGYSGYGYAFDAFDPWGQGTLVTVSS VL: EIVMTQSPSTLSASVGDRVIITCQSSKSVYNDNWLSWYQQKPGKAPKLLIYGASTLASGVPSRFSGSGSGAEFTLTISSLQPDDFATYYCAGGYSSSSDNGFGQGTKLTVL",1.11 fold over parental antibody
4,"MYT11282 (antibody, V domains shown) VH: EVQLVESGGGLVQPGGSLRLSCTASGIDLSRYSMGWVRQAPGKGLEWVGIISYGGSTYYASWAKGRFTISRDTSKNTVYLQMNSLRAEDTAVYFCARHGYPGYSGYGYAFDAFDPWGQGTLVTVSS VL: EIVMTQSPSTLSASVGDRVIITCQSSKSVYNDNWLSWYQQKPGKAPKLLIYGASTLASGVPSRFSGSGSGAEFTLTISSLQPDDFATYYCAGGYSSSSDNGFGQGTKLTVL",1.68 fold over parental antibody
5,"MYT11284 (antibody, V domains shown) VH: EVQLVESGGGLVQPGGSLRLSCTASGIDLSRYSMGWVRQAPGKGLEWVGIISYGGSTYYASWAKGRFTISRDTSKNTVYLQMNSLRAEDTAVYFCARVGHPGYSGYGYAFDAFDPWGQGTLVTVSS VL: EIVMTQSPSTLSASVGDRVIITCQSSKSVYNDNWLSWYQQKPGKAPKLLIYGASTLASGVPSRFSGSGSGAEFTLTISSLQPDDFATYYCAGGYSSSSDNGFGQGTKLTVL",1.51 fold over parental antibody
6,"MYT11287 (antibody, V domains shown) VH: EVQLVESGGGLVQPGGSLRLSCTASGIDLSRYSMGWVRQAPGKGLEWVGIISYGGSTYYASWAKGRFTISRDTSKNTVYLQMNSLRAEDTAVYFCARVGYPGHSGYGYAFDAFDPWGQGTLVTVSS VL: EIVMTQSPSTLSASVGDRVIITCQSSKSVYNDNWLSWYQQKPGKAPKLLIYGASTLASGVPSRFSGSGSGAEFTLTISSLQPDDFATYYCAGGYSSSSDNGFGQGTKLTVL",1.71 fold over parental antibody
7,"MYT11291 (antibody, V domains shown) VH: EVQLVESGGGLVQPGGSLRLSCTASGIDLSRYSMGWVRQAPGKGLEWVGIISYGGSTYYASWAKGRFTISRDTSKNTVYLQMNSLRAEDTAVYFCARVGYPGYSGYHYAFDAFDPWGQGTLVTVSS VL: EIVMTQSPSTLSASVGDRVIITCQSSKSVYNDNWLSWYQQKPGKAPKLLIYGASTLASGVPSRFSGSGSGAEFTLTISSLQPDDFATYYCAGGYSSSSDNGFGQGTKLTVL",1.53 fold over parental antibody
8,"MYT11292 (antibody, V domains shown) VH: EVQLVESGGGLVQPGGSLRLSCTASGIDLSRYSMGWVRQAPGKGLEWVGIISYGGSTYYASWAKGRFTISRDTSKNTVYLQMNSLRAEDTAVYFCARVGYPGYSGYGHAFDAFDPWGQGTLVTVSS VL: EIVMTQSPSTLSASVGDRVIITCQSSKSVYNDNWLSWYQQKPGKAPKLLIYGASTLASGVPSRFSGSGSGAEFTLTISSLQPDDFATYYCAGGYSSSSDNGFGQGTKLTVL",1.59 fold over parental antibody
9,"MYT11293 (antibody, V domains shown) VH: EVQLVESGGGLVQPGGSLRLSCTASGIDLSRYSMGWVRQAPGKGLEWVGIISYGGSTYYASWAKGRFTISRDTSKNTVYLQMNSLRAEDTAVYFCARVGYPGYSGYGYHFDAFDPWGQGTLVTVSS VL: EIVMTQSPSTLSASVGDRVIITCQSSKSVYNDNWLSWYQQKPGKAPKLLIYGASTLASGVPSRFSGSGSGAEFTLTISSLQPDDFATYYCAGGYSSSSDNGFGQGTKLTVL",1.65 fold over parental antibody
10,"MYT11294 (antibody, V domains shown) VH: EVQLVESGGGLVQPGGSLRLSCTASGIDLSRYSMGWVRQAPGKGLEWVGIISYGGSTYYASWAKGRFTISRDTSKNTVYLQMNSLRAEDTAVYFCARVGYPGYSGYGYAHDAFDPWGQGTLVTVSS VL: EIVMTQSPSTLSASVGDRVIITCQSSKSVYNDNWLSWYQQKPGKAPKLLIYGASTLASGVPSRFSGSGSGAEFTLTISSLQPDDFATYYCAGGYSSSSDNGFGQGTKLTVL",1.66 fold over parental antibody
11,"MYT11297 (antibody, V domains shown) VH: EVQLVESGGGLVQPGGSLRLSCTASGIDLSRYSMGWVRQAPGKGLEWVGIISYGGSTYYASWAKGRFTISRDTSKNTVYLQMNSLRAEDTAVYFCARVGYPGYSGYGYAFDAHDPWGQGTLVTVSS VL: EIVMTQSPSTLSASVGDRVIITCQSSKSVYNDNWLSWYQQKPGKAPKLLIYGASTLASGVPSRFSGSGSGAEFTLTISSLQPDDFATYYCAGGYSSSSDNGFGQGTKLTVL",1.51 fold over parental antibody
12,"MYT11303 (antibody, V domains shown) VH: EVQLVESGGGLVQPGGSLRLSCTASGIDLSRYSMGWVRQAPGKGLEWVGIISYGGSTYYASWAKGRFTISRDTSKNTVYLQMNSLRAEDTAVYFCARVGYPGYSGYGYAFDAFAPWGQGTLVTVSS VL: EIVMTQSPSTLSASVGDRVIITCQSSKSVYNDNWLSWYQQKPGKAPKLLIYGASTLASGVPSRFSGSGSGAEFTLTISSLQPDDFATYYCAGGYSSSSDNGFGQGTKLTVL",1.51 fold over parental antibody
13,"MYT11305 (antibody, V domains shown) VH: EVQLVESGGGLVQPGGSLRLSCTASGIDLSRYSMGWVRQAPGKGLEWVGIISYGGSTYYASWAKGRFTISRDTSKNTVYLQMNSLRAEDTAVYFCARVGYPGYSGYGYAFDAFDPWGQGTLVTVSS VL: EIVMTQSPSTLSASVGDRVIITCQHSKSVYNDNWLSWYQQKPGKAPKLLIYGASTLASGVPSRFSGSGSGAEFTLTISSLQPDDFATYYCAGGYSSSSDNGFGQGTKLTVL",1.37 fold over parental antibody
14,"MYT11307 (antibody, V domains shown) VH: EVQLVESGGGLVQPGGSLRLSCTASGIDLSRYSMGWVRQAPGKGLEWVGIISYGGSTYYASWAKGRFTISRDTSKNTVYLQMNSLRAEDTAVYFCARVGYPGYSGYGYAFDAFDPWGQGTLVTVSS VL: EIVMTQSPSTLSASVGDRVIITCQSSHSVYNDNWLSWYQQKPGKAPKLLIYGASTLASGVPSRFSGSGSGAEFTLTISSLQPDDFATYYCAGGYSSSSDNGFGQGTKLTVL",1.82 fold over parental antibody
15,"MYT11310 (antibody, V domains shown) VH: EVQLVESGGGLVQPGGSLRLSCTASGIDLSRYSMGWVRQAPGKGLEWVGIISYGGSTYYASWAKGRFTISRDTSKNTVYLQMNSLRAEDTAVYFCARVGYPGYSGYGYAFDAFDPWGQGTLVTVSS VL: EIVMTQSPSTLSASVGDRVIITCQSSKSVHNDNWLSWYQQKPGKAPKLLIYGASTLASGVPSRFSGSGSGAEFTLTISSLQPDDFATYYCAGGYSSSSDNGFGQGTKLTVL",1.64 fold over parental antibody
16,"MYT11315 (antibody, V domains shown) VH: EVQLVESGGGLVQPGGSLRLSCTASGIDLSRYSMGWVRQAPGKGLEWVGIISYGGSTYYASWAKGRFTISRDTSKNTVYLQMNSLRAEDTAVYFCARVGYPGYSGYGYAFDAFDPWGQGTLVTVSS VL: EIVMTQSPSTLSASVGDRVIITCQSSKSVYNDNWHSWYQQKPGKAPKLLIYGASTLASGVPSRFSGSGSGAEFTLTISSLQPDDFATYYCAGGYSSSSDNGFGQGTKLTVL",1.51 fold over parental antibody
17,"MYT11316 (antibody, V domains shown) VH: EVQLVESGGGLVQPGGSLRLSCTASGIDLSRYSMGWVRQAPGKGLEWVGIISYGGSTYYASWAKGRFTISRDTSKNTVYLQMNSLRAEDTAVYFCARVGYPGYSGYGYAFDAFDPWGQGTLVTVSS VL: EIVMTQSPSTLSASVGDRVIITCQSSKSVYNDNWLHWYQQKPGKAPKLLIYGASTLASGVPSRFSGSGSGAEFTLTISSLQPDDFATYYCAGGYSSSSDNGFGQGTKLTVL",1.55 fold over parental antibody
